Measurements taken from patent publication US9273290B2, “Method for producing phosphite dehydrogenase protein and use thereof” (priority 2011, dated 2016).
Where “and” joins values, the source holds several entries; their conditions need not be identical. Equal entries are not always repeated.

Key:
[1] = Heat resistance of phosphite dehydrogenase protein (specific activity vs temperature, FIG. 3); assay type: biochemical; conditions: 0.2 mg/mL in 50 mM MOPS pH 7.4, kept at 10° C. to 60° C.; 1 mM NAD+, 1 mM phosphorous acid
Procedure: After the ultracentrifugation, a supernatant was collected to be used as a crude extract for measuring phosphite dehydrogenase activity. A total of 1000 μL of a reaction solution was prepared which contained the crude extract (protein amount: 10 μg), NAD^+ (1 mM), phosphorous acid (1 mM), and a MOPS-KOH buffer (20 mM, pH 7.4). A temperature of the reaction solution was elevated to 45° C., so that a reaction was started. A sample was collected, each in an amount of 100 μL, at predetermined time intervals for a predetermined period of time (0 to 180 minutes), and absorbance (340 nm) of each sample was measured. Phosphite dehydrogenase activity was evaluated in terms of an amount of NADH generated by 1 mg of protein per unit time.
PtxD4506 and PtxDPst, which were purified with use of the HisTrap column in [3. Expression of Phosphite Dehydrogenase Protein Using Escherichia Coli] were examined in terms of heat resistance. The following description discusses how measurement of heat resistance was carried out.
Each of the purified PtxD4506 and PtxDPst was added to 50 mM of a MOPS buffer (pH 7.4) so as to have a final concentration of 0.2 mg/mL. 100 μL of an enzyme solution thus obtained was supplied to a 1.5-mL tube, and 100 μL of mineral oil was added to the enzyme solution in order to prevent evaporation. A temperature of the tube was maintained at 10° C. to 60° C. for 12 hours. […]

[2] = Solubility of His-tagged phosphite dehydrogenase forcibly expressed in E. coli (supernatant vs sediment, SDS-PAGE); assay type: physicochemical, Escherichia coli; conditions: expressed in E. coli Rosetta2 (DE3), disruption buffer 50 mM Tris-HCl pH 7.4, 50 mM NaCl, 0.1% Tween20, centrifuged 15,000 rpm, CBB
Source text: By a well-known method, the base sequence of SEQ ID NO: 2 or a phosphite dehydrogenase gene (SEQ ID NO: 4) of P stutzeri WM88 was inserted into a plasmid pET21b (produced by Novagen) (an amino acid sequence of the protein encoded by the base sequence of SEQ ID NO: 4 is shown in SEQ ID NO: 3) to prepare (i) an expression vector of a fusion protein (see “PtxD4506” in FIG. 2) in which the C-terminal of the phosphite dehydrogenase protein of SEQ ID NO: 1 is labeled with a His tag or (ii) an expression vector of a fusion protein (see “PtxDPst” in FIG. 2) in which the C-terminal of the phosphite dehydrogenase protein of P stutzeri WM88 is labeled with a His tag.
A competent cell Rosetta2 (DE3) (produced by Novagen) was transformed by a well-known method with use of each of the expression vectors.
Transformants thus obtained were inoculated on a 200 mL LB culture medium (containing 10 g of polypeptone, 5 g of yeast extract, and 5 g of NaCl per liter of the culture-medium), and were cultured at 37° C. until OD600 reached 0.5. Subsequently, IPTG (isopropyl thiogalactoside) was added to the culture so as to have a concentration of 1 mM. Then, the culture was incubated for another 3 more hours at 28° C.
The culture was centrifuged at 6,000 rpm for 15 minutes, and bacteria, which were sediment, were collected. The bacteria were suspended in a buffer for disruption (50 mM Tris-HCl (pH: 7.4), 50 mM NaCl), and a suspension thus obtained was subjected to an ultrasonic treatment, so that the bacteria were disrupted. Subsequently, Tween20 (Registered Trademark) was added to a resultant solution of the disrupted bacteria so as to have a final concentration of 0.1%, and was left still on ice for 15 minutes. Note that the buffer for disruption containing the disrupted bacteria is indicated as “T” in FIG. 2.
The buffer for disruption containing the disrupted bacteria was centrifuged at 15,000 rpm and 4° C. for 15 minutes. After the centrifugation, a resultant product was divided into a supernatant and sediment. In FIG. 2, the supernatant is indicated as “S” and the sediment is indicated as “I.”
The buffer for disruption (T) containing the disrupted bacteria, the supernatant (S), and the sediment (I) described above were separated by SDS-PAGE. Subsequently, an acrylamide gel was dyed with CBB stain one (produced by Nacalai), and an amount of the phosphite dehydrogenase protein was measured.

[3] = Activity of phosphite dehydrogenase protein in the presence of inhibitor (relative OD340); assay type: biochemical; conditions: no inhibitor = 100.0; for relative value of OD340, average: NaCl, average of experiments
Procedure: PtxD4506 and PtxDPst, which were purified with use of the HisTrap column in [3. […] An experimental method was based on a method described in the literature “Costas et al., Journal of Biological Chemistry, 2001, 276, 17429-17436.” The experimental method is briefly described below.
A reaction solution was prepared by mixing 100 μL of 100 mM MOPS-KOH (pH 7.25), 50 μL of 10 mM NAD, 5 μL of 5 mM phosphite, 50 μL of 40 mM inhibitor of various kinds (arsenite, nitrate, sulfate, or NaCl), 294 μL of H2O, and 1 μL of 0.5 mg/mL protein-containing solution (a PtxD4506-containing solution, a PtxDPst-containing solution, or a liquid which contained no protein (negative control)).
The reaction solution was reacted for 60 minutes. Note that the reaction solution containing the PtxD4506-containing solution was reacted at 45° C., and the reaction solution containing the PtxDPst-containing solution was reacted at 30° C. Subsequently, OD340 was measured. A relative value of OD340 of each sample was calculated relative to 100 of a value of OD340 of the reaction solution containing the liquid which contained no protein (negative control). Note that each experiment was conducted 4 times or more, and an average of relative values obtained in the 4 or 5 experiments was also calculated.

[4] = Reaction kinetic analysis of phosphite dehydrogenase protein (NADH production rate vs NAD+ concentration); assay type: biochemical; conditions: ratio PtxD4506 / PtxDPst
Procedure: PtxD4506 and PtxDPst, which were purified with use of the HisTrap column in [3. Expression of Phosphite Dehydrogenase Protein By Using Escherichia Coli], were compared with each other in terms of reaction rate. The following description discusses how measurement of reaction rates was carried out.
Reaction rates of respective PtxD4506 and PtxDPst were calculated on the basis of (Reaction formula 1) shown in the section [Background Art].
Specifically, in the reaction system of (Reaction formula 1), a production rate of NADH was measured with use of 7.5 μg of each of the fusion proteins PtxD4506 and PtxDPst while a concentration of a substrate (NAD^+) was gradually changed from 0.5 μM to 200 μM. […]
Based on the measured concentration of the substrate (NAD^+) and the measured production rate of NADH, values of Km (μM), Vmax (μmol/min/m), Kcat (min^−1), and Kcat/km were calculated in accordance with a well-known enzyme kinetic method (see, for example, “Fundamental Experiment Method of Proteins and Enzymes (2nd revised edition), Nankodo Co., Ltd.”). Note that the experiment was carried out three times, and values of Km, Vmax, Kcat, and Kcat/km were calculated in each of the experiments. Then, for each of Km, Vmax, Kcat, and Kcat/km, an average of the values calculated in the three experiments was obtained and defined as the value of each of Km, Vmax, Kcat, and Kcat/km. […]

B1: PtxDPst: fusion protein: phosphite dehydrogenase protein of P stutzeri WM88 (SEQ ID NO: 3), C-terminal labeled with a His tag (protein, listed as Pseudomonas stutzeri)
chain: MLPKLVITHRVHDEILQLLAPHCELMTNQTDSTLTREEILRRCRDAQAMMAFMPDRVDADFLQACPELRVVGCALKGFDNFDVDACTARGVWLTFVPDLLTVPTAELAIGLAVGLGRHLRAADAFVRSGEFQGWQPQFYGTGLDNATVGILGMGAIGLAMADRLQGWGATLQYHEAKALDTQTEQRLGLRQVACSELFASSDFILLALPLNADTQHLVNAELLALVRPGALLVNPCRGSVVDEAAVLAALERGQLGGYAADVFEMEDWARADRPRLIDPALLAHPNTLFTPHIGSAVRAVRLEIERCAAQNIIQVLAGARPINAANRLPKAEPAAC
modifications: C-terminal His tag
temperature at which specific activity is the highest (optimum temperature) [1]: about 35 °C
fusion protein present in the sediment (I) [2]: approximately 81.6%
fusion protein present in the supernatant (S) [2]: approximately 18.4%
relative value of OD340, average [3]: 89.3

B2: PtxD4506: fusion protein: phosphite dehydrogenase protein of SEQ ID NO: 1 (from Ralstonia sp. strain 4506), C-terminal labeled with a His tag (protein)
chain: MKPKVVLTHWVHPEIIELLSASADVIPNTTRETLPRSEVIARAKDADALMAFMPDSIDSAFLEECPKLRVIGAALKGYDNFDVNACTRHGVWLTIVPDLLTIPTAELTIGLLLGLTRHMLEGDRQIRSGHFQGWRPTLYGSGLTGKTLGIIGMGAVGRAIAQRLAGFEMNLLYCDPIPLNAEQEKAWHVQRVTLDELLEKCDYVVPMVPMAAETLHLIDATALAKMKTGSYLINACRGSVVDENAVIAALASGKLAGYAADVFEMEEWIRADRPQAIPKALLDNTAQTFFTPHLGSAVKEVRLEIERQAAMNIIQALAGEKPMGAINQPYPGVKAA
modifications: C-terminal His tag; Ralstonia sp. 4506
temperature at which specific activity is the highest (optimum temperature) [1]: about 50 °C
Km relative to that of PtxDPst [4]: about a third
fusion protein present in the sediment (I) [2]: approximately 8.6%
fusion protein present in the supernatant (S) [2]: approximately 91.4%
relative value of OD340 ([3]; NaCl (50 μL of 40 mM in reaction solution), single experiments 1-5, 60 min, PtxD4506 at 45° C., PtxDPst at 30° C.): 92.6 and 96.9 and 95.7 and 95.9 and 87.1
relative value of OD340, average [3]: 93.6
